Data: patent US20250059285A1 (ARGENX, published 2025)

T1: recombinant human Charcot-Leyden crystals (crystalline galectin-10) (human, UniProt Q05315 2-142, limits assumed)
T1 sequence: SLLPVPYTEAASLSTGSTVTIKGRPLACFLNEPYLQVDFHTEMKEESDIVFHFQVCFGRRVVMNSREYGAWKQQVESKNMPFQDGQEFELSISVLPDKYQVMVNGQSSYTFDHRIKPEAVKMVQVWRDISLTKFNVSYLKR

T2: human Gal10-His (human, UniProt Q05315 2-142, limits assumed)
T2 construct: also called hGal10-His; human Gal10-His tagged; not shown: His tag
T2 sequence: T1 sequence

B1: g7B07_N53A (human Fab) (Fab, V domains shown)
VH: EVQLLESGGGLVQPGGSLRLSCAASGFTFRSYDMSWVRQAPGKGLEWVSAIKAGGGITYYADSVKGRFTISRDNSKNTLYLQMNSLRAEDTAVYYCATTHGIGTLGFGSWGQGTLVTVSS
VL: SYELTQPLSVSVALGQTARITCDGNNIGSKSAQWYQQKPGQAPVLVIYADEYRPEGIPERFSGSNSGNTATLTISRAQAGDEADYYCQVWDGSAAVFGGGTQLTVL
notes: VH assembled by inference as for g7B07; Human Fab backbone; also called g7B07_N53A (mean)
B2: g24F02_N53A (human Fab) (Fab, V domains shown)
VH: EVQLLESGGGLVQPGGSLRLSCAASGFTFSSYAMSWVRQAPGKGLEWVSAINAGGGSTSYADSVKGRFTISRDNSKNTLYLQMNSLRAEDTAVYYCAKGLRVGVLGFDYWGQGTLVTVSS
VL: B1 VL
notes: Human Fab backbone: human CH1 and human lambda constant domain (pUPEX vectors); also called g24F02_N53A_2W

How the values were obtained:
[1] = target: T1, recombinant human Charcot-Leyden …; assay: cell-based or functional assay
human Gal10-His [2] = target: T2, human Gal10-His; assay: SPR, overview table of lead Fab candidates
human Gal10-His [3] = target: T2, human Gal10-His; assay: SPR against T0 reference; sample 4 weeks at 37 C
Experimental: (§1) The functional active concentration of the candidates was then assessed by SPR on a Biacore 3000 instrument (FIG. 4). All samples were evaluated with methods meeting the standard qualification criteria. Aliquots were tested at predefined test concentrations against titration curves from reference samples (T0, −80° C. storage) and in the presence of quality control (QC) samples covering a range of 70-130% relative activity (% RA) towards the reference material.
(§2) comparison/reference ⁽¹⁾ samples correspond to aliquots kept at +37° C. for 4 weeks ⁽²⁾ samples correspond to aliquots kept at +5° C. for 4 weeks prior to nebulization. In brief, samples were nebulized with an Aerogen Solo active vibrating mesh nebulizer that converted a drug solution into an inhalable aerosol. Three different devices for each time-point were used per clone and results are reported by the device (nebulizer) serial number. In case of device fouling, indicated by longer nebulization times […]

human Gal10-His [4] = target: T2, human Gal10-His; assay: SPR against T0 reference; sample 4 weeks at 5 C, then nebulized
Experimental: as §1, §2

human Gal10-His [5] = target: T2, human Gal10-His; assay: SPR Biacore 3000, hFab on human Gal10-His captured by anti-His CM5
Experimental: (§3) The binding properties of the selected clones to human and cynomolgus Gal10 was analyzed via a capture method established on a Biacore 3000 instrument.
(§4) For this purpose, two approaches were used. In the first, two concentrations of the selected clones were applied on cynomolgus (WGS isoform) Gal10-His capture on a CM5 chip coated with a monoclonal anti-His antibody. The second approach involved a serial dilution that was applied on human or cynomolgus (WGS isoform) Gal10-His in the same set-up.

[6] = target: T3, cynomolgus Gal10-His (WGS isoform) (cynomolgus); assay: SPR Biacore 3000, hFab on cynomolgus Gal10-His (WGS) captured by anti-His CM5
T3 construct: also called cynomolgus antigen
Experimental: as §3, §4

human Gal10-His [7] = target: T2, human Gal10-His; assay: SPR Biacore 3000, purified hFab (2 conc.) on Gal10-His captured by anti-His CM5
Experimental: (§5) The binding properties of the selected Fab clones to human Gal10 were analyzed via a capture method established on a Biacore 3000 instrument. Two concentrations of the selected Fab clones were tested on human Gal10-His immobilized on a CM5 chip coated with a monoclonal anti-His. As controls, the clone g7B07 and g7B07_N53A were injected at the beginning and the end of the run. Briefly, a CM5 chip was coated with a monoclonal anti-His antibody (4000 RU), then a fixed concentration of the human Gal10-His (25 μg/mL) was captured on the anti-His chip before receiving two concentrations of the clones in the human Fab backbone.

human Gal10-His [8] = target: T2, human Gal10-His; assay: SPR Biacore 3000, hFab on captured human Gal10-His; column head prints (M), the text gives nM
Experimental: as §3, §4

[9] = target: T3, cynomolgus Gal10-His (WGS isoform); assay: SPR Biacore 3000, hFab on captured cynomolgus Gal10-His (WGS); column head prints (M), the text gives nM
Experimental: as §3, §4

human Gal10-His [10] = target: T2, human Gal10-His; assay: SPR, summary table, human Gal10
[11] = target: T3, cynomolgus Gal10-His (WGS isoform); assay: SPR, summary table, cynomolgus_WGS Gal10
human Gal10-His [12] = target: T2, human Gal10-His; assay: SPR Biacore 3000, hFab on captured human Gal10-His
Source text: as §4
Further characterization of the cynomolgus cross-reactivity of these clones highlighted g24F02_N53A and g23H09.

human Gal10-His [13] = target: T2, human Gal10-His; assay: SPR Biacore 3000, purified hFab on captured Gal10-His
Experimental: as §5

human Gal10-His [14] = target: T2, human Gal10-His; assay: SPR slope against calibrators on captured Gal10-His; T0 sample
Experimental: (§6) The binding properties of the seven selected clones following two weeks of temperature stress was analysed using an optimized capture method on a Biacore 3000 instrument. The binding properties of the stressed samples were determined, compared to the calibration point, and expressed as a percentage of Relative Activity (% RA).
(§7) Briefly, a capture method was set-up on a Biacore 3000 instrument. For this purpose, a CM5 chip was coated with a monoclonal anti-His antibody (4000 RU), then a fixed concentration of the human Gal10-His (25 μg/mL) was captured on the anti-His chip before receiving duplicate injections of the calibrators, QC samples and temperature stressed samples of each clone. The slope of each injected sample was then calculated using the BIA evaluation software. Concentrations of the QC samples and temperature stressed samples were back-calculated by interpolating the obtained slopes of these samples to the calibrator curve. Obtained values were within +/−20% of the nominal concentration of the tested samples and are expressed as average relative accuracy (avg % RA) (Table 13).

human Gal10-His [15] = target: T2, human Gal10-His; assay: SPR slope against calibrators on captured Gal10-His; sample 2 weeks at 37 C
Experimental: as §6, §7

human Gal10-His [16] = target: T2, human Gal10-His; assay: competition ELISA on coated Gal10-His; hFab 20 ug/mL, competitor g7B07-hFab-Biot, streptavidin-HRP
Experimental: An epitope binning analysis of the humanized Fab clones was carried out in comparison with the humanized Fab of g7B07.
For this experiment, a sub-optimal concentration of the biotinylated clone g7B07-humanized Fab was added to the Gal10 coated plate and pre-incubated with the selected clones. The percentage competition with g7B07 was then determined (Table 17). Motavizumab (Mota) in a human Fab backbone was used as a negative control (0% competition). Clone g7B07 was used as the positive control for competition and was therefore set as the 100% competition value. The anti-human specific clone 1D11 (binding to Tyrosine 69 residue) was included in the tested panel as a negative control for competition with 7B07 for Gal10 binding because it was known that clone 1D11 binds to the opposite side of Gal10 (including Tyrosine 69).

Row | Binder | crystal dissolution % Relative Activity towards the reference T0 after 2 h, nebulized [1] [%] | crystal dissolution % Relative Activity towards the reference T0 after 2 h, stressed [1] [%] | Kd (human Gal10-His [2]) [nM] | koff (human Gal10-His [2]) [s⁻¹] | % relative activity by SPR (human Gal10-His [3]) [%] | % relative activity by SPR (human Gal10-His [4]) [%] | Amplitude R0 (human Gal10-His [5]) [RU] | koff (human Gal10-His [5]) [s⁻¹] | kon (human Gal10-His [5]) [M⁻¹ s⁻¹] | Amplitude R0 [6] [RU] | koff [6] [s⁻¹] | kon [6] [M⁻¹ s⁻¹] | Kd (human Gal10-His [7]) [nM] | kd-fold drop vs g7B07 (human Gal10-His [7]) [fold] | koff (human Gal10-His [7]) [s⁻¹] | kon (human Gal10-His [7]) [M⁻¹ s⁻¹] | Kd (human Gal10-His [8]) [nM] | Kd [9] [nM] | other results
1 | B1 | 53 | 82 | 145 | 0.079 | 95 | 94 | 119 | 0.079 | 540000 | 30 | 0.21 | 510000 | 144 | 0.06 | 0.078 | 640000 | 145 | 417 | recGal10 crystal dissolution EC50 (T2 h), Assay 1, nebulized [1]: 584 µg/mL; recGal10 crystal dissolution EC50 (T2 h), Assay 1, stressed (4 W at 37 C) [1]: 379 µg/mL; recGal10 crystal dissolution EC50 (T2 h), Assay 1, unstressed (T0) [1]: 309 µg/mL
2 | B2 | 120 | 117 | 1.4 | 0.0018 | 103 | 111 | 647 | 0.0018 | 1.3e+06 | 544 | 0.0088 | 1.1e+06 | 2.3 | 2.8 | 0.0016 | 710000 | 1.43 | 8 | recGal10 crystal dissolution EC50 (T2 h), Assay 2, nebulized [1]: 159 µg/mL; recGal10 crystal dissolution EC50 (T2 h), Assay 2, stressed (4 W at 37 C) [1]: 164 µg/mL; recGal10 crystal dissolution EC50 (T2 h), Assay 2, unstressed (T0) [1]: 191 µg/mL; Kd (human Gal10-His [10]): 1.4 nM; koff (human Gal10-His [10]): 0.0018 s⁻¹; Kd [11]: 8 nM; koff [11]: 0.0088 s⁻¹; fold better affinity than g7B07 (human Gal10-His [12]): 6.3 fold; fold better off-rate than g7B07 (human Gal10-His [12]): 3.5 fold; fold better affinity than g7B07 (human Gal10-His [13]): 4.7 fold; % Relative Activity (RA) on Biacore (human Gal10-His [14]): 98%; % Relative Activity (RA) on Biacore (human Gal10-His [15]): 99%; % Competition against g7B07-Biot (human Gal10-His [16]): 99%; Mean OD value (human Gal10-His [16]): 0.2 OD
